As a reminder, the Kd is the constant that tells how readily two partners part at equilibrium.

The values below come from US20190135918A1 (ICHNOS SCIENCES, published 2019).

Experiment [1] has as its target T1, F16 (peptide-Fc fusion derived from the extracellular domain of human CD38) (human, UniProt P0DOX5 223-449 = IgG part).
T1 construct: As F1; by count CD38 residues 238-250
In words: SPR, humanized 9G7 immobilized on the chip, peptide-Fc fusion injected. (In general: SPR reads the build-up and loss of mass on a sensor chip optically.)

Experiment [2] addresses T2, F14 (peptide-Fc fusion derived from the extracellular domain of human CD38) (human, UniProt P0DOX5 223-449 = IgG part).
T2 construct: As F1; by count CD38 residues 212-224
The experiment is described as above.

Experiment [3] deals with T3, F18 (peptide-Fc fusion derived from the extracellular domain of human CD38) (human, UniProt P0DOX5 223-449 = IgG part).
T3 construct: As F1; by count CD38 residues 264-276
The description is as above.

Experiment [4] deals with T4, F10 (peptide-Fc fusion derived from the extracellular domain of human CD38) (human, UniProt P0DOX5 223-449 = IgG part).
T4 construct: As F1; by count CD38 residues 160-172
Described as above.

The target of experiment [5] is T5, F12 (peptide-Fc fusion derived from the extracellular domain of human CD38) (human, UniProt P0DOX5 223-449 = IgG part).
T5 construct: As F1; by count CD38 residues 186-198
The description is as above.

In experiment [6] the target is T6, F19 (peptide-Fc fusion derived from the extracellular domain of human CD38) (human, UniProt P0DOX5 223-449 = IgG part).
T6 construct: As F1; by count CD38 residues 277-289
The description is as above.

Experiment [7] deals with T7, F15 (peptide-Fc fusion derived from the extracellular domain of human CD38) (human, UniProt P0DOX5 223-449 = IgG part).
T7 construct: As F1; by count CD38 residues 225-237
The experiment is described as above.

For experiment [8], the target named is T8, F11 (peptide-Fc fusion derived from the extracellular domain of human CD38) (human, UniProt P0DOX5 223-449 = IgG part).
T8 construct: As F1; by count CD38 residues 173-185
The description is as above.

Experiment [9] addresses T9, F1 (peptide-Fc fusion derived from the extracellular domain of human CD38) (human, UniProt P0DOX5 223-449 = IgG part).
T9 construct: 13-residue peptide fused to human IgG1 Fc (CH2-CH3) with an Ala-Ser linker; by count CD38 residues 43-55
As to the kind of experiment: SPR, antibody immobilized, peptide-Fc fusion injected.

For experiment [10], the target named is T10, F5 (peptide-Fc fusion derived from the extracellular domain of human CD38) (human, UniProt P0DOX5 223-449 = IgG part).
T10 construct: As F1; by count CD38 residues 95-107
Described as above.

The target of experiment [11] is T11, F8 (peptide-Fc fusion derived from the extracellular domain of human CD38) (human, UniProt P0DOX5 223-449 = IgG part).
T11 construct: As F1; by count CD38 residues 134-146
The description is as above.

For experiment [12], the target named is T12, F7 (peptide-Fc fusion derived from the extracellular domain of human CD38) (human, UniProt P0DOX5 223-449 = IgG part).
T12 construct: As F1; by count CD38 residues 121-133
The experiment is described as above.

Experiment [13] addresses T13, F20 (peptide-Fc fusion derived from the extracellular domain of human CD38) (human, UniProt P0DOX5 223-449 = IgG part).
T13 construct: Final peptide of 11 amino acids, else as F1; by count CD38 residues 290-300
The description is as above.

Experiment [14] deals with T14, F2 (peptide-Fc fusion derived from the extracellular domain of human CD38) (human, UniProt P0DOX5 223-449 = IgG part).
T14 construct: As F1; by count CD38 residues 56-68
The description is as above.

For experiment [15], the target named is T15, F4 (peptide-Fc fusion derived from the extracellular domain of human CD38) (human, UniProt P0DOX5 223-449 = IgG part).
T15 construct: As F1; by count CD38 residues 82-94
Described as above.

For experiment [16], the target named is T16, F9 (peptide-Fc fusion derived from the extracellular domain of human CD38) (human, UniProt P0DOX5 223-449 = IgG part).
T16 construct: As F1; by count CD38 residues 147-159
The description is as above.

For experiment [17], the target named is T17, F17 (peptide-Fc fusion derived from the extracellular domain of human CD38) (human, UniProt P0DOX5 223-449 = IgG part).
T17 construct: As F1; by count CD38 residues 251-263
The experiment is described as above.

Experiment [18] concerns the target T18, F3 (peptide-Fc fusion derived from the extracellular domain of human CD38) (human, UniProt P0DOX5 223-449 = IgG part).
T18 construct: As F1; by count CD38 residues 69-81; also called F3 construct
The experiment is described as above.

The target in experiment [19] is T19, F13 (peptide-Fc fusion derived from the extracellular domain of human CD38) (human, UniProt P0DOX5 223-449 = IgG part).
T19 construct: As F1; by count CD38 residues 199-211
The description is as above.

Experiment [20] deals with T20, F6 (peptide-Fc fusion derived from the extracellular domain of human CD38) (human, UniProt P0DOX5 195-449 = IgG part).
T20 construct: As F1; by count CD38 residues 108-120 (holds M110)
In words: SPR.

Experiment [21] deals with T18, F3 (peptide-Fc fusion derived from the …). In words: SPR, SAR650984 on the chip, peptide-Fc fusion injected.
The target in experiment [22] is T21, human CD3 epsilon 1-26_Fc fusion protein (human).
T21 construct: also called human CD3 1-26_Fc fusion protein
In words: SPR, CD3 epsilon 1-26 Fc coupled to the chip, antibody injected.

For another experiment, the target named is T22, Protein G (UniProt P06654 228-352).
T22 construct: also called protein G chromatography
T22 sequence (P06654 228-352): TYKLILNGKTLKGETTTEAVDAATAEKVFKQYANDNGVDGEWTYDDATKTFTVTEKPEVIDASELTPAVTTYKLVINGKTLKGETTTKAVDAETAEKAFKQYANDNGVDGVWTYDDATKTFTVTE
As to the kind of experiment: protein G affinity chromatography, eluate (G) and flow-through (G ft) on non-reducing SDS-PAGE.

Another experiment concerns the target T23, Protein A (Staphylococcus aureus, UniProt P38507 37-327).
T23 construct: Resin ligands (MabSelect, MabSelect SuRe) are recombinant or engineered forms; also called protein A chromatography
As to the kind of experiment: protein A affinity chromatography, eluate (A) and flow-through (A ft) on non-reducing SDS-PAGE.

Experiment [23] addresses T24, soluble extracellular region of cynomolgus monkey CD38 antigen fused to a 6-His-tag (cynomolgus monkey, UniProt Q5VAN0 45-301).
T24 construct: also called cynomolgus CD38
As to the kind of experiment: SPR (summary table, row 'KD cynomolgus monkey CD38 (nM)').

B1: humanized 9G7 antibody (best-fit version) as used in Example 10 (antibody, human IgG1, kappa, V domains shown)
VH: QVTLKESGPTLVKPTQTLTLTCTFSGLSLSTSGKGVGWIRQPPGKALEWLAHIWWDDDKRYNPALKSRLTITKDTSKNQVVLTMTNMDPVDTATYYCARIELGRSYVMDYWGQGTLVTVSS
VL: DIQMTQSPSSLSASVGDRVTITCQASQDVITSVAWFQQKPGKAPKLLIYSASYRYTGVPSRFSGSGSGTDFTFTISSLQPEDIATYYCQQHYTIPLTFGQGTKLEIKR
notes: also called h9G7
With B1, the binding result in [1], in experiment [2], in [3], in experiment [4], in experiment [5] and in experiment [6] was “no binding (tested: 15 nM)” in each case. In addition, the binding result in experiment [7] is “no binding (tested: 15 nM)”; in experiment [8], “no binding (tested: 15 nM)”; in [9] it was “no binding (tested: 15 nM; 200 nM)”; in experiment [10] it was “no binding (tested: 15 nM; 200 nM)”; in [11], “no binding (tested: 15 nM; 200 nM)”; in experiment [12], “no binding (tested: 15 nM; 200 nM)”. The binding result in [13], in [14], in experiment [15], in [16], in experiment [17] and in experiment [18] was “no binding (tested: 15 nM; 200 nM)” in each case. Further, in experiment [19], the binding result is reported as “no binding (tested: 15 nM; 200 nM)”.

B2: SAR650984 antibody (antibody, human IgG1, kappa, V domains shown)
VH: QVQLVQSGAEVAKPGTSVKLSCKASGYTFTDYWMQWVKQRPGQGLEWIGTIYPGDGDTGYAQKFQGKATLTADKSSKTVYMHLSSLASEDSAVYYCARGDYYGSNSLDYWGQGTSVTVSS
VL: DIVMTQSHLSMSTSLGDPVSITCKASQDVSTVVAWYQQKPGQSPRRLIYSASYRYIGVPDRFTGSGAGTDFTFTISSVQAEDLAVYYCQQHYSPPYTFGGGTKLEIKR
notes: also called humanized SAR650984 antibody
Take B2: the values for the binding result in experiment [20] and in experiment [21] were “binds” and “no binding (tested: not printed)”, respectively.

B3: BEAT CD38-9G7best-fit/CD3(SP34-Kappa2) antibody (bispecific antibody)
heavy: QVTLKESGPTLVKPTQTLTLTCTFSGLSLSTSGKGVGWIRQPPGKALEWLAHIWWDDDKRYNPALKSRLTITKDTSKNQVVLTMTNMDPVDTATYYCARIELGRSYVMDYWGQGTLVTVSSASTKGPSVFPLAPSSKSTSGGTAALGCLVKDYFPEPVTVSWNSGALTSGVHTFPAVLQSSGLYSLSSVVTVPSSSLGTQTYICNVNHKPSNTKVDKKVEPKSCDKTHTCPPCPAPEAAGGPSVFLFPPKPKDTLMISRTPEVTCVVVDVSHEDPEVQFKWYVDGVEVHNAKTKPREEQYNSTFRVVSVLTVLHQDWLNGKEYKCKVSNKALPAPIEKTISKTKGQPREPAVYTLPPSREEMTKNQVKLVCLVTGFYPSDIAVEWESSGQPENNYYTTPPMLDSDGSFSLVSWLNVDKSRWQQGNIFSCSVMHEALHNRFTQKSLSLSPGK
light: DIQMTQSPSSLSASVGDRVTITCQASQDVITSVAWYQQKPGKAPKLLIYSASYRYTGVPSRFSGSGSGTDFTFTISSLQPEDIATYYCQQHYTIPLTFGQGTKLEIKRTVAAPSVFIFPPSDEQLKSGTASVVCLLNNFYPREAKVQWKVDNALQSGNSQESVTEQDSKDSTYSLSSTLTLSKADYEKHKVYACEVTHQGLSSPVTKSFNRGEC
chain: EVQLVESGGGLVQPGGSLRLSCAASGFTFNTYAMNWVRQAPGKGLEWVARIRSKYNNYATYYADSVKGRFTISRDDSKNTLYLQMNSLRAEDTAVYYCVRHGNFGNSYVSYFAYWGQGTTVTVSSGGGGSGGGGSGGGGSEIVVTQSPATLSVSPGERATLSCRSSTGAVTAANYANWVQEKPGQAFRGLIGGANKRAPGVPARFSGSLSGDEATLTISSLQSEDFAVYYCALFYSNLWVFGQGTKLEIKGGGGTDKTHTCPPCPAPEAAGGPSVFLFPPKPKDTLMISRTPEVTCVVVDVSHEDPEVKFNWYVDGVEVHNAKTKPREEQYNSTYRVVSVLTVLHQDWLNGKEYKCKVSNKALPAPIEKTISKAKGQPREPEVATFPPSRDELTKNQVTLVCLVTGFYPSDIAVEWESNGQPENNYKTDPPLLESQGSFALSSRLRVDKSRWQQGNVFSCSVMHEALHNHYTQKSLSLSPG
notes: Third chain is the anti-CD3 epsilon scFv BEAT heavy chain with humanized SP34 VH5/VL32; also called 9G7xSP34(GV2)
In experiment [22], B3 registered a Kd of 18 nM.

B4: BTB homodimer construct lacking the VH3 based scFv (other)
chain: DKTHTCPPCPAPEAAGGPSVFLFPPKPKDTLMISRTPEVTCVVVDVSHEDPEVKFNWYVDGVEVHNAKTKPREEQYNSTYRVVSVLTVLHQDWLNGKEYKCKVSNKALPAPIEKTISKAKGQPREPEVATFPPSRDELTKNQVTLVCLVTGFYPSDIAVEWESNGQPENNYKTDPPLLESQGSFALSSRLRVDKSRWQQGNVFSCSVMHEALHNHYTQKSLSLSPGK
notes: Human IgG1 Fc region with the BTB CH3 domain carrying D401Q
For B4, the binding result with Protein G and with Protein A was “no binding” throughout.

B5: chimeric 9G7 antibody (antibody, human IgG1, kappa, V domains shown)
VH: QVTLKESGPGILQPSQTLSLTCSFSGLSLSTSGKGVGWIRQPSGKGLEWLAHIWWDDDKRYNPALKSRLTISKDTSSNQVFLKIASVDTADTATYYCARIELGRSYVMDYWGQGTTVTVSS
VL: DIVMTQSHKFMSTSVGDRVSISCKASQDVITSVAWFQQKPGQSPKLLIYSASYRYTGVPDRFTGSGSGTDFTFTISSVQAEDLAVYYCQQHYTIPLTFGAGTKLELKR
In turn, B5 had a Kd in experiment [23] of 1 nM.
